Legend:
[1] = target: T1, human CD47 on MKN45 cells (human, UniProt Q08722 19-323); assay: inhibition of SIRPα-mouseFc binding to CD47 on MKN45 cells, imaging (CX5)
T1 construct: whole, on cells; also called IAP
Text: The detection of bound SIRPα cell-based assay monitoring the interaction of soluble SIRPα with human CD47 expressed at the surface of MKN45 is used for the detection of the blocking activity. Dose-response experiments with bispecific antibodies according to the invention allow determination of an IC50 value.
MKN45 cancer cells, expressing both CD47 and CEACAM5, are stained with CFSE violet to allow the imaging system (CX5) to detect the cells. Briefly, 3,000 stained MKN45 cells per well are seeded in a 384 optical well plate (Costar) and incubated for 50 minutes with increased concentrations of bispecific antibodies of the invention (1.9 pM to 333 nM, in quadruplicates). Then, a fixe concentration of SIRPα-mouseFc premixed with anti-mouse IgG-Fc AF647 coupled antibody (Jackson Immunoresearch diluted 1:2000) is added at 50 ng/mL final. After an incubation of 3H30 plates are acquired with the imaging system (CX5, Thermofisher) and fluorescence signals emitted by the detected bound SIRPα is recorded by the software dedicated to the imaging system. Fluorescence signals are plotted according to the dose range tested and IC50 are calculated by the software (Prism, Graphpad).

[2] = target: T2, human CEACAM5 on MKN-45 cells (human, UniProt P06731 35-685); assay: FACS binding to MKN-45 cells, which express CD47, CEACAM5 and CEACAM6
T2 construct: Endogenous CEACAM5 on MKN-45 gastric adenocarcinoma cells, which also carry CD47 (and CEACAM6); also called CD66e; MKN45 CEA+ cancer cells
T2 sequence: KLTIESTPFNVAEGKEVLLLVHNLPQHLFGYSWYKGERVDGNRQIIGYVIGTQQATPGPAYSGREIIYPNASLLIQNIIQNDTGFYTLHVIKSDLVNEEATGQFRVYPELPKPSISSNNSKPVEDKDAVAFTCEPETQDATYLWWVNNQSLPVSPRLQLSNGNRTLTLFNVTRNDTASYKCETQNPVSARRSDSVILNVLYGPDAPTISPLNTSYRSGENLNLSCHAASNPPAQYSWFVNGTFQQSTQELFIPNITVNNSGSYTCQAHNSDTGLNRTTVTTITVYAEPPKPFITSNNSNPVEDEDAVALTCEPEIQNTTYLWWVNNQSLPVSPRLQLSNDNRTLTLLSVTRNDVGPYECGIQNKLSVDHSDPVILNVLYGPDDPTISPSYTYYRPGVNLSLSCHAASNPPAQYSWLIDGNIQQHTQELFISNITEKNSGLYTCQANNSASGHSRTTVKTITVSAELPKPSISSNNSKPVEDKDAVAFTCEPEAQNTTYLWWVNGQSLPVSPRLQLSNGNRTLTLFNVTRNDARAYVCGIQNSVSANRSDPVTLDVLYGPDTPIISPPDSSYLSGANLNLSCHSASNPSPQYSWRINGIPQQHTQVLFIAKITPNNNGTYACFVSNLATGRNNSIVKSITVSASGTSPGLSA

human CEACAM6 = target: T3, human CEACAM6 (human, UniProt P40199 35-320); assay: statement in the legend of FIG. 21A (FACS on MKN-45 cells)
T3 construct: also called CD66c; biotinylated recombinant human CEACAM6
T3 sequence (looked up): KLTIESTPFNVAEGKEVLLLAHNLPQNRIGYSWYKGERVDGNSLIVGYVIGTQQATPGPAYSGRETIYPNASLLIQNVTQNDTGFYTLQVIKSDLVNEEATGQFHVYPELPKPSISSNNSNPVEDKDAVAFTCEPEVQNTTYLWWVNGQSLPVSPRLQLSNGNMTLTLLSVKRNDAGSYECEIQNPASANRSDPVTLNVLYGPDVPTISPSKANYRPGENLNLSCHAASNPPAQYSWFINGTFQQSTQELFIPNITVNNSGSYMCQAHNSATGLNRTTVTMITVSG

[3] = target: T2, human CEACAM5 on MKN-45 cells; assay: flow cytometry on MKN45 CEA+ cells (carry CEACAM5 and CD47)
[4] = target: T2, human CEACAM5 on MKN-45 cells; assay: binding to MKN-45 cells (MFI), in the presence of 200 ng/mL shed CEA
shed CEA (soluble CEA) = target: T4, shed CEA (soluble CEA) (human, UniProt P06731 35-685, limits assumed); assay: cell-based or functional assay
T4 sequence (looked up): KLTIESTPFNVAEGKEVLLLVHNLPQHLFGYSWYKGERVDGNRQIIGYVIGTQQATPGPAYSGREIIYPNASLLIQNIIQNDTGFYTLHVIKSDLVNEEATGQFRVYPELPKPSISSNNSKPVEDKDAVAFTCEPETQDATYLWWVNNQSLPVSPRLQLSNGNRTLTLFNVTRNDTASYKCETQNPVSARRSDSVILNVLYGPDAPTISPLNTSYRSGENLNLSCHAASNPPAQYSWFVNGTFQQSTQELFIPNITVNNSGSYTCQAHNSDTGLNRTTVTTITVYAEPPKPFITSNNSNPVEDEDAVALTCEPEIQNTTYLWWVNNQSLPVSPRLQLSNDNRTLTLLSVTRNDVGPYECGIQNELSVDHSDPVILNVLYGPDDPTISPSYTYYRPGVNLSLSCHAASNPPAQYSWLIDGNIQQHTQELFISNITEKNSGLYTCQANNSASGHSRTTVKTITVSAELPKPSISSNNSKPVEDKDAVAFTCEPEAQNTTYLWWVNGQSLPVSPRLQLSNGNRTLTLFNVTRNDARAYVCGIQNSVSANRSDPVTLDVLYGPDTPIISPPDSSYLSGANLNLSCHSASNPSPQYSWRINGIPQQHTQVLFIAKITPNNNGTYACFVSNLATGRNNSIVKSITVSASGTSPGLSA

[5] = target: T2, human CEACAM5 on MKN-45 cells; assay: binding to MKN-45 cells (MFI), without shed CEA

B1: K2AC22 CEA×CD47 bispecific antibody (bispecific antibody, human IgG1, kappa, lambda)
heavy: not shown
light 1: QSVLTQPPSVSAAPGQKVTISCSGSSSNIANGIVSWYQQLPGTAPKLLIYFDNLRPSGIPDRFSGSKSGTSATLGITGLQTGDEADYYCGTWDFSYGIVFGGGTKLTVLGQPKAAPSVTLFPPSSEELQANKATLVCLISDFYPGAVTVAWKADSSPVKAGVETTTPSKQSNNKYAASSYLSLTPEQWKSHRSYSCQVTHEGSTVEKTVAPTECS
light 2: not shown
notes: κλ body, human IgG1, common heavy chain; CEACAM5 arm light chain 1G6 (AC22)
- IC50 [1]: 0.37 nM
- EC50 (read off the curve) [2]: ~1 µg/mL
- binding result (human CEACAM6): no binding
- EC50 [3]: 16.5 nM
- EC50 (read off the curve) [4]: ~0.5 µg/mL
- shift of EC50 of the phagocytosis index curve of MKN-45 cells by 200 ng/mL shed CEA (shed CEA (soluble CEA)): < 4 fold
- EC50 (read off the curve) [5]: ~0.5 µg/mL

From patent publication US20200123252A1 (LAMKAP BIO BETA, published 2020)
